From patent US20170240645A1 (Genentech, published 2017)

Experiments:
[1] = biological target: T1, PMEL17 25-65 with an N-terminal gD tag and a C-terminal GPI anchor (human, UniProt P40967 25-65, not fully specified; C-terminal GPI anchor); test: FACS on transiently transfected 293 cells
T1 construct: C-terminal deletion, transiently expressed on 293 cells
T1 chain: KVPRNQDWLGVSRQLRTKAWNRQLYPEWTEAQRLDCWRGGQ
Source text: (§1) In addition, C-terminal deletions with an N-terminal gD tag and a C-terminal GPI anchor were transiently transfected into 293 cells and analyzed for antibody binding by FACS. The C-terminal deletions tested included PMEL172₅₋₁₂₅, PMEL17₂₅₋₁₀₅, PMEL17₂₅₋₈₅, PMEL17₂₅₋₆₅, and PMEL17₂₅₋₄₅.

[2] = biological target: T2, PMEL17 25-85 with an N-terminal gD tag and a C-terminal GPI anchor (human, UniProt P40967 25-85, C-terminal GPI anchor); test: FACS on transiently transfected 293 cells
T2 construct: C-terminal deletion, transiently expressed on 293 cells
T2 sequence: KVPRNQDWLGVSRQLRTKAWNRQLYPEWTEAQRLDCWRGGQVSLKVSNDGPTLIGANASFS
Source text: as §1

[3] = biological target: T3, PMEL17 25-105 with an N-terminal gD tag and a C-terminal GPI anchor (human, UniProt P40967 25-105, C-terminal GPI anchor); test: FACS on transiently transfected 293 cells
T3 construct: C-terminal deletion, transiently expressed on 293 cells
T3 sequence: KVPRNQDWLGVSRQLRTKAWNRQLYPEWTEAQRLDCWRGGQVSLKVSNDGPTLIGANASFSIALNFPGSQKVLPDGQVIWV
Source text: as §1

[4] = biological target: T4, PMEL17 25-125 with an N-terminal gD tag and a C-terminal GPI anchor (human, UniProt P40967 25-125, C-terminal GPI anchor); test: FACS on transiently transfected 293 cells
T4 construct: C-terminal deletion, transiently expressed on 293 cells
T4 sequence: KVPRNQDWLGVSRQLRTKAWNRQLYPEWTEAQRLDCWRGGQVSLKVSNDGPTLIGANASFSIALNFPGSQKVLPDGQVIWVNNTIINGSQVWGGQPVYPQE
Source text: as §1

[5] = biological target: T5, PMEL17 N-terminal deletion mutant Δ100 (human, UniProt P40967 101-661); test: immunoblot of cell lysates
T5 construct: the real construct lacks the N-terminal part; Tested in cell lysates by immunoblot
T5 sequence: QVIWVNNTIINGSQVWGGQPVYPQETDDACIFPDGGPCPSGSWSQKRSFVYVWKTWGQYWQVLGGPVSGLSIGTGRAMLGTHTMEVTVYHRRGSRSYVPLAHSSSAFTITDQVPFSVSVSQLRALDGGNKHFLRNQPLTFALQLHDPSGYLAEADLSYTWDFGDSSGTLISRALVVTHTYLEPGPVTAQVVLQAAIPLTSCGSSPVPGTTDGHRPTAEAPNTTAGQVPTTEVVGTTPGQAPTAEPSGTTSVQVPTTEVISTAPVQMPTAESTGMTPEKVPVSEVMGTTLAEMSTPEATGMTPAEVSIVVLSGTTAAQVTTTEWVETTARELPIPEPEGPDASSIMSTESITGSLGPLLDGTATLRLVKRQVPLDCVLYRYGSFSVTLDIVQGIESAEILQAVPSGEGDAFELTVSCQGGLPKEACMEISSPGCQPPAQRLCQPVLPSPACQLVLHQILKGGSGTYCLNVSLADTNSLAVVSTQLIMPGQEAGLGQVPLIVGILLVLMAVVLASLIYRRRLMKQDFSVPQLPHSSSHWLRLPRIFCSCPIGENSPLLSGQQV

[6] = biological target: T6, PMEL17 N-terminal deletion mutant Δ255 (human, UniProt P40967 256-661); test: immunoblot of cell lysates
T6 construct: the real construct lacks the N-terminal part; Tested in cell lysates by immunoblot
T6 sequence: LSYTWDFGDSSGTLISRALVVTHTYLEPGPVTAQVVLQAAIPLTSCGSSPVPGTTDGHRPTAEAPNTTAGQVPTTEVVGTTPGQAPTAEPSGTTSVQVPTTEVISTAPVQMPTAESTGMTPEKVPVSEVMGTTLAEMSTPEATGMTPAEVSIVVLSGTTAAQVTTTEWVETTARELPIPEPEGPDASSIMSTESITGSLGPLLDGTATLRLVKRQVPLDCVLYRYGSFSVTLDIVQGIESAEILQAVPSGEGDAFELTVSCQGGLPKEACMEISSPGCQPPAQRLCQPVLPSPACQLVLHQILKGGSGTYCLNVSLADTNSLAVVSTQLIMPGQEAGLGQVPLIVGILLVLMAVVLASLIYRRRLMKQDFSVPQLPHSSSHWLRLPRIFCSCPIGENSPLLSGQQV

B1: 17A9 (antibody, V domains shown)
VH: EVQLQQSGPELVKPGASMKISCKSSGYSFTRYTMNWVKQSHGKNLEWIGVINPYNGGTVYNQKFKGKATLTVDKSSSTAYMELLSLTSEDSAVYYCARTDYDGYAMDYWGQGTSVTVSS
VL: DVQITQSPSYLAASPGETITINCRATKSISKYLAWYQEQPGKTNNLLIYSGSTLQSGIPSRFSGSGSGTDFTLTISSLEPEDFAMYYCQQHNEYPYTFGSGTKLEIK
notes: Mouse monoclonal antibody from a hybridoma (mice immunized with PMEL17 ECD-Fc); also called anti-PMEL17 antibody 17A9
binding result [1]: no binding | binding result [2]: no binding | binding result [3]: no binding | binding result [4]: binds | binding result [5]: no binding | binding result [6]: no binding
